Experimental findings from paper PMC5476676 are described below.

This assay concerns the target Protein L (UniProt Q51918). As to the kind of experiment: BLI.

“Trastuzumab wild-type (recombinant Trastuzumab model) (antibody)”: the koff was determined as 1.2e-05 s⁻¹.
